The target in this assay is CRM1 (human, recombinant, His-tagged) (human, UniProt O14980 1-1071). Briefly: pull-down.
CRM1 (human, recombinant, His-tagged), sequence (O14980 whole entry): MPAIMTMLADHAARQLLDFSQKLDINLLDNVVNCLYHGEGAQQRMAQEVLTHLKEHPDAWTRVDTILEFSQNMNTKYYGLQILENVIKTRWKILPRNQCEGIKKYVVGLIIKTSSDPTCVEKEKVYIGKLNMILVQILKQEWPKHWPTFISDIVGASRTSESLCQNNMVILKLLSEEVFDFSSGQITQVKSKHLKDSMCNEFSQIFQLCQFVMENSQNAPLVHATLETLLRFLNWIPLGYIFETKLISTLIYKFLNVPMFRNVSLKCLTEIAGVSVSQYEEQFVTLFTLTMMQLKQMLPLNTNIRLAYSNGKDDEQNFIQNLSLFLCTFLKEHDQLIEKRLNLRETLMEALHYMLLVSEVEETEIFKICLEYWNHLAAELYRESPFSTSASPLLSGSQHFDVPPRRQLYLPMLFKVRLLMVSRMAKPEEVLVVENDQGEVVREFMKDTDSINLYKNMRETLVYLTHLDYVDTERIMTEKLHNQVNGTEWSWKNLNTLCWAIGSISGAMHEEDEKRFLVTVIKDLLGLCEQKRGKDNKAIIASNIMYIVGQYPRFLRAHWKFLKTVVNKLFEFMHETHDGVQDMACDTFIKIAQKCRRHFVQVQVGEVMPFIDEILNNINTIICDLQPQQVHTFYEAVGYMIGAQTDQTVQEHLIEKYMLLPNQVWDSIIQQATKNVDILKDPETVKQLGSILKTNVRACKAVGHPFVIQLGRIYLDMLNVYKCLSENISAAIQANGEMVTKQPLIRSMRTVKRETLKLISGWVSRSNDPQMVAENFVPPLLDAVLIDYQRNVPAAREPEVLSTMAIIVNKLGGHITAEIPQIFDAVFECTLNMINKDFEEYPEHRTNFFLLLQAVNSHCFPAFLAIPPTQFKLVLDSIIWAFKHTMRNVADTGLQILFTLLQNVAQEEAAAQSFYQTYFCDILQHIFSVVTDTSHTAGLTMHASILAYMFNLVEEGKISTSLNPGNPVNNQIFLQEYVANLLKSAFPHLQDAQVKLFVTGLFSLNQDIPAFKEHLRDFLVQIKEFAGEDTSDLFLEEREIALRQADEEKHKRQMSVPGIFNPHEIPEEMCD

B1: GST-RAD51 F86E (natural protein, human, UniProt Q06609 1-339, looked up)
chain: MAMQMQLEANADTSVEEESFGPQPISRLEQCGINANDVKKLEEAGFHTVEAVAYAPKKELINIKGISEAKADKILAEAAKLVPMGETTATEFHQRRSEIIQITTGSKELDKLLQGGIETGSITEMFGEFRTGKTQICHTLAVTCQLPIDRGGGEGKAMYIDTEGTFRPERLLAVAERYGLSGSDVLDNVAYARAFNTDHQTQLLYQASAMMVESRYALLIVDSATALYRTDYSGRGELSARQMHLARFLRMLLRLADEFGVAVVITNQVVAQVDGAAMFAADPKKPIGGNIIAHASTTRLYLRKGRGETRICKIYDSPCLPEAEAMFAINADGVGDAKD
With B1, the binding result is recorded as “binds”.

(Values after paper PMC3796201 (Nature structural & molecular biology, 2013).)
